Measurements: US20240226230A1 (MAYO FOUNDATION FOR MEDICAL EDUCATION AND RESEARCH, published 2024)
One block for each binder: values may come before it. Where no end group is shown, it is not given here.

What was measured:
mCherry-KPNB1 = molecular target: T1, mCherry-KPNB1 (Homo sapiens (Human), UniProt Q14974 1-876); experiment: co-IP with mCherry-KPNB1, western blot
T1 construct: mCherry was cloned into GFP-KPNB1; also called mCherry-tagged KPNB1; not shown: mCherry tag (mCherry-C1, Clontech)
T1 sequence (Q14974 other isoform, or with tags, fused parts or gaps): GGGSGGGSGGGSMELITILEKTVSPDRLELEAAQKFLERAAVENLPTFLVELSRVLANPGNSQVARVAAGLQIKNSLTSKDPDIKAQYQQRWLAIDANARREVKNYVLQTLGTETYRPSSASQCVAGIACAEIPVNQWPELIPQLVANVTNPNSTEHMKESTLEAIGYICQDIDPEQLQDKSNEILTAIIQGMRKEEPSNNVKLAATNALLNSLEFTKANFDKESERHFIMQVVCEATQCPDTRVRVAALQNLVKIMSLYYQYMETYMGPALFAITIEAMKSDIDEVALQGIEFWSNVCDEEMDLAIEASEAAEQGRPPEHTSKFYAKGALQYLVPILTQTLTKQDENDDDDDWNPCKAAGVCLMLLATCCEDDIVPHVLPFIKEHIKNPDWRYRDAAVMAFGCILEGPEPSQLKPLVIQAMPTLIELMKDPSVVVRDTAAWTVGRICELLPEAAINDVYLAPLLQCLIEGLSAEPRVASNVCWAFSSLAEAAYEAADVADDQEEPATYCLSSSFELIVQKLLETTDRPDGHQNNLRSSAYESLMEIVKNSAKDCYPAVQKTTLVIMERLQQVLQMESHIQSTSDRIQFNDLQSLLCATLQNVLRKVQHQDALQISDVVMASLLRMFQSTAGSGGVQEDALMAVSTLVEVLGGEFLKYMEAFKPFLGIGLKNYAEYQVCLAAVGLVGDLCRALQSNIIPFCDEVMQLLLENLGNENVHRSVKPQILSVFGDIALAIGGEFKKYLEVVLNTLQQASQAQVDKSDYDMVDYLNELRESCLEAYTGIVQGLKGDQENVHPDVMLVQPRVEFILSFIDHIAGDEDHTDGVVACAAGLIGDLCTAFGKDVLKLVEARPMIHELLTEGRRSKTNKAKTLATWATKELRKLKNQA
From the text: FIG. 30B) Lysates from HEK293T cells co-expressing mCherry-KPNB1 with GFP, GFP-TDP-CTF or GFP-TDP-CTF C-terminal deletion constructs were subjected to immunoprecipitation with RFP-Trap magnetic beads. Whole cell lysates (input) and immunoprecipitates (IP) were subjected to western blot analysis using indicated antibodies. Deletion of amino-acids 230-240 in TDP-CTF reduced its binding to KPNB1. FIG. 30C) Lysates from HEK293T cells co-expressing mCherry-KPNB1 with GFP, GFP-TDP-CTF or GFP-TDP-CTF N-terminal deletion constructs were subjected to immunoprecipitation with RFP-Trap magnetic beads. Whole cell lysates (input) and immunoprecipitates (IP) were subjected to western blot analysis using indicated antibodies. Deletion of amino-acids 230-240 in TDP-CTF reduces its binding to KPNB1. TDP-PrLD weakly interacts with KPNB1. FIG. 30D) (Left) Lysates from HEK293T cells co-expressing mCherry-KPNB1 with GFP, GFP-TDP-CTF^WT or GFP-TDP-CTF^Δ230-240 were subjected to immunoprecipitation with RFP-Trap magnetic beads. […] (Right) Quantification of relative GFP levels in IP normalized by GFP levels in input confirm that GFP-TDP-CTF^Δ230-240 interacts less with mCherry-KPNB1. […] FIG. 30F) Western blot analysis and quantification of insoluble GFP-tagged TDP-CTF^WT or TDP-CTF^Δ230-240 in HEK293T cells expressing mCherry or mCherry-KPNB1. […]

Untagged KPNB1 = molecular target: T2, Untagged KPNB1 (Homo sapiens (Human), UniProt Q14974 1-876); experiment: GFP-Trap IP from HEK293T lysates, western blot
T2 construct: KPNB1 amplified by PCR and cloned into pEGFP-C1 lacking the GFP tag; also called Wildtype KPNB1
T2 sequence (Q14974 whole entry): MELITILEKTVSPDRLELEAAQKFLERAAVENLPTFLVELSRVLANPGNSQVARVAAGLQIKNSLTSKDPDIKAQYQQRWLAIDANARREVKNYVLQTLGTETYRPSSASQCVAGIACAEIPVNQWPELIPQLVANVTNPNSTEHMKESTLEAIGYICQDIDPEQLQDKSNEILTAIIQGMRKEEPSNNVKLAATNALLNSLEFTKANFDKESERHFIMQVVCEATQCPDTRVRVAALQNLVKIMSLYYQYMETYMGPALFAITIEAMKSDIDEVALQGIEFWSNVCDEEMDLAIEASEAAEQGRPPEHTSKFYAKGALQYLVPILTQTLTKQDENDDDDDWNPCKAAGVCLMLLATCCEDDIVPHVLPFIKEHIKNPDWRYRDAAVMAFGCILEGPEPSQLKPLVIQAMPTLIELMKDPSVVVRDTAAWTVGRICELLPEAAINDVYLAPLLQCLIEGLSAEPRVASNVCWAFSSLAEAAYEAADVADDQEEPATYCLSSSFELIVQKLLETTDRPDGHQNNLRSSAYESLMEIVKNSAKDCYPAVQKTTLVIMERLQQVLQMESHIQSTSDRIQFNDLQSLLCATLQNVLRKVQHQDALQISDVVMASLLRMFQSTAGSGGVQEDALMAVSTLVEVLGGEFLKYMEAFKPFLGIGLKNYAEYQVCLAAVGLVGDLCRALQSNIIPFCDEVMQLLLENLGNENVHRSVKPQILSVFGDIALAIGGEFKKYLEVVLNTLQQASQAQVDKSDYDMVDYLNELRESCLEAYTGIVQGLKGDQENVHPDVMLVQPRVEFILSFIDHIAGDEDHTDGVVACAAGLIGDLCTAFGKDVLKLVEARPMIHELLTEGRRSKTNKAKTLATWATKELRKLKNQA
From the text: FIGS. 29A-29C: Untagged KPNB1 interacts with both the RRM2 and PrLD of TDP-CTF. FIG. 29A) (Left) Lysates from HEK293T cells expressing GFP alone, or untagged KPNB1 with GFP, GFP-TDP-CTF or GFP-TDP43^WT were subjected to immunoprecipitation with GFP-Trap magnetic beads. Whole cell lysates (input) and immunoprecipitates (IP) were subjected to western blot analysis using indicated antibodies. (Right) Quantification of relative KPNB1 levels in IP normalized by KPNB1 levels in input. Statistical analysis was performed using one-way ANOVA and Bonferroni's post hoc test (**p<0.01, ***p<0.001, n=3). […] FIG. 29C) (Left) Lysates from HEK293T cells expressing GFP alone, or untagged KPNB1 with GFP, GFP-TDP-CTF, GFP-TDP-CTF^non-PrLD or GFP-TDP-PrLD were subjected to immunoprecipitation with GFP-Trap magnetic beads. Whole cell lysates (input) and immunoprecipitates (IP) were subjected to western blot analysis using indicated antibodies. (Right) Quantification of relative KPNB1 levels in IP normalized by KPNB1 levels in input. Statistical analysis was performed using one-way ANOVA and Bonferroni's post hoc test (***p<0.001, n=3).
FIGS. 31A-31C: The PrLD of TDP-43 interacts with FG-Nups and KPNB1. FIG. 31A) Immunofluorescence (IF) of HEK293T cells expressing GFP or GFP-TDP-PrLD and stained for endogenous Nup98 and Nup62. TDP-PrLD forms small cytoplasmic foci positive for Nup62. FIG. 31B) IF of HEK293T cells expressing GFP or GFP-TDP-PrLD and stained for endogenous KPNB1. KPNB1 colocalizes with TDP-PrLD foci in the cytoplasm. Hoechst staining was used to outline nuclei. Scale bar: 5 μm. FIG. 31C) Lysates from HEK293T cells expressing GFP or GFP-TDP-PrLD were subjected to immunoprecipitation with GFP-Trap magnetic beads. Whole cell lysates (input) and immunoprecipitates (IP) were subjected to western blot analysis using indicated antibodies. The PrLD of TDP-43 interacts with Nup62, Nup98 and KPNB1, but not with Ran.
HEK293T cells were seeded in 6-well plates and transfected for 48 hours. Cells were then lysed in IP Lysis buffer (Fisher) supplemented with a protease inhibitor cocktail (Roche), and were centrifuged at 15000 rpm for 20 minutes at 4° C. A small aliquot of the recovered supernatant was set aside (input).

[1] = molecular target: T3, GFP-KPNB1 full-length (FL) (Homo sapiens (Human), UniProt Q14974 1-876); experiment: co-IP of GFP-tagged KPNB1 truncations, western blot
T3 construct: the plasmid is GFP-KPNB1 (Euroscarf #P30478); The linker is stated in general for fluorescent protein fusions; also called EGFP-KPNB1; GFP-KPNB1^FL; not shown: GFP/EGFP tag (pEGFP-C1, Clontech)
T3 sequence (Q14974 other isoform, or with tags, fused parts or gaps): as the sequence (Q14974 other isoform, or with tags, fused parts or gaps) above
From the text: FIG. 21A) Schematic domain structure of KPNB1. KPNB1 is comprised of 19 HEAT repeats (H1-19). RanGTP and importin-α interact with H1-8 and H8-19, respectively. FG-Nups bind to two regions of KPNB1, H5-7 and H14-16. FIG. 21B) Lysates from HEK293T cells expressing GFP, GFP-KPNB1 full-length (FL), N-terminal fragments of KPNB1 (H1-9 . . . H1) or the C-terminal fragment of KPNB1 (H10-19) were subjected to immunoprecipitation with GFP-Trap magnetic beads. Whole cell lysates (input) and immunoprecipitates (IP) were subjected to western blot analysis using indicated antibodies. KPNB1 H1-8, the smallest fully active KPNB1 fragment in reducing TDP-43 aggregation, strongly interacts with FG-Nups and Ran, and weakly with importin-al in comparison with full-length KPNB1. FIG. 21C) (Top) Schematic domain structure of KPNB1 H1-8^mNIS harboring four missense mutations (1178A, F217A, Y255A, I263R) in the nucleoporin-interacting site (NIS). (Bottom) Lysates from HEK293T cells expressing GFP, GFP-KPNB1 H1-8^WT or H1-8^mNIS were subjected to immunoprecipitation with GFP-Trap magnetic beads. Whole cell lysates (input) and immunoprecipitates (IP) were subjected to western blot analysis using indicated antibodies. […] Hoechst staining was used to outline nuclei. Scale bar: 5 μm. […] Statistical analysis was performed using one-way ANOVA and Bonferroni's post hoc test (**p<0.01, ***p<0.001, n=4). FIG. 21F) IF of HEK293T cells co-expressing GFP-(GR)₁₀₀ with an empty plasmid (ctrl), FLAG-tagged KPNB1 H1-8^WT or H1-8^mNIS and stained for endogenous TDP-43. Unlike KPNB1 H1-8^mNIS, KPNB1 H1-8^WT prevents the sequestration of endogenous TDP-43 in cytoplasmic GR aggregates. Arrowheads point to cytoplasmic GR aggregates. Hoechst staining was used to outline nuclei. Scale bar: 5 μm.

binding result (mCherry-KPNB1): binds
B1: GFP-TDP-CTF 208-239 (other, human)
chain: {GFP}-GGGSGGGSGGGSREFFSQYGDVMDVFIPKPFRAFAFVTFADDQI
modifications: also: GFP tag fused N-terminally, not in chain, (GGGS)3 linker in chain
notes: not shown: GFP/EGFP tag (pEGFP-C1, Clontech)

binding result (Untagged KPNB1): binds
B2: GFP-TDP-CTF non-PrLD (other, human)
chain: GGGSGGGSGGGSREFFSQYGDVMDVFIPKPFRAFAFVTFADDQIAQSLCGEDLIIKGISVHISNAEPKHNSNRQLERSG
notes: as for B1

binding result [1]: binds
B3: endogenous Nup50 (other, human, UniProt Q9UKX7 1-468, looked up)
chain: MAKRNAEKELTDRNWDQEDEAEEVGTFSMASEEVLKNRAIKKAKRRNVGFESDTGGAFKGFKGLVVPSGGGRFSGFGSGAGGKPLEGLSNGNNITSAPPFASAKAAADPKVAFGSLAANGPTTLVDKVSNPKTNGDSQQPSSSGLASSKACVGNAYHKQLAALNCSVRDWIVKHVNTNPLCDLTPIFKDYEKYLANIEQQHGNSGRNSESESNKVAAETQSPSLFGSTKLQQESTFLFHGNKTEDTPDKKMEVASEKKTDPSSLGATSASFNFGKKVDSSVLGSLSSVPLTGFSFSPGNSSLFGKDTTQSKPVSSPFPTKPLEGQAEGDSGECKGGDEEENDEPPKVVVTEVKEEDAFYSKKCKLFYKKDNEFKEKGIGTLHLKPTANQKTQLLVRADTNLGNILLNVLIPPNMPCTRTGKNNVLIVCVPNPPIDEKNATMPVTMLIRVKTSEDADELHKILLEKKDA
notes: Detected with anti-Nup50

binding result [1]: binds
B4: endogenous Nup62 (other, human, UniProt P37198 2-522, looked up)
chain: SGFNFGGTGAPTGGFTFGTAKTATTTPATGFSFSTSGTGGFNFGAPFQPATSTPSTGLFSLATQTPATQTTGFTFGTATLASGGTGFSLGIGASKLNLSNTAATPAMANPSGFGLGSSNLTNAISSTVTSSQGTAPTGFVFGPSTTSVAPATTSGGFSFTGGSTAQPSGFNIGSAGNSAQPTAPATLPFTPATPAATTAGATQPAAPTPTATITSTGPSLFASIATAPTSSATTGLSLCTPVTTAGAPTAGTQGFSLKAPGAASGTSTTTSTAATATATTTSSSSTTGFALNLKPLAPAGIPSNTAAAVTAPPGPGAAAGAAASSAMTYAQLESLINKWSLELEDQERHFLQQATQVNAWDRTLIENGEKITSLHREVEKVKLDQKRLDQELDFILSQQKELEDLLSPLEELVKEQSGTIYLQHADEEREKTYKLAENIDAQLKRMAQDLKDIIEHLNTSGAPADTSDPLQQICKILNAHMDSLQWIDQNSALLQRKVEEVTKVCEGRRKEQERSFRITFD
notes: Detected with anti-Nup62
